Measurements taken from patent US20240209104A1 (SHANGHAI ACEMAB, published 2024).
Changes are numbered by the printed parent chain.

T1: hOX40-EC-His (human, UniProt P43489 29-214)
T1 construct: extracellular domain; bought protein; also called recombinant human OX40 antigen protein; human OX40 extracellular segment antigen; not shown: 6 His label
T1 sequence (looked up): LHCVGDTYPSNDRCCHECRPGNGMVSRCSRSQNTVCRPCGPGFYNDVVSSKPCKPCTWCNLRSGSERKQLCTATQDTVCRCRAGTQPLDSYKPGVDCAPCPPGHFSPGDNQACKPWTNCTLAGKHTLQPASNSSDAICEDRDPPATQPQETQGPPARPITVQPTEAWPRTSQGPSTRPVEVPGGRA

T2: OX40 on OX40 over-expressed cells (UniProt P43489 29-277)
T2 construct: whole, on cells; human implied; also called OX40 expressed on the surface of OX40 expressing cell
T2 sequence (looked up): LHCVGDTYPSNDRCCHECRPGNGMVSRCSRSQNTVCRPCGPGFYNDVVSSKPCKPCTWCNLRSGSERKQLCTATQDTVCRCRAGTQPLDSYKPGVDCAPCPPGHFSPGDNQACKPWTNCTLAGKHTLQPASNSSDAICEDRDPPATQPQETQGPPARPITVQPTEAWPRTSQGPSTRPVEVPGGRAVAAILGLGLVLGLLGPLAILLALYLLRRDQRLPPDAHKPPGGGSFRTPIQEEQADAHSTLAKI

B1: 55H6-6 (antibody, V domains shown)
VH: QVQLVQSGAEVKKPGASVKVSCKASGYTFTSYGISWVRQAPGQGLEWMGWISAYNGHTNYAQKLQGRVTMTTDTSTNTAYMELWSLRSDDTAVYYCTSDYGDYWGQGTLVTVSS
VL: DVVVTQSPLSLPVTLGQPASISCRSSQSLVYSDGNTNLYWFQQRPGQSPRRLIYQVSNRDSGVPDRFSGSGSGTDFTLKISRVEAEDVGVYYCMQGTHWPPALTFGGGTEVEIKR
notes: hybridoma antibody, tested as culture supernatant
B2: 30B1-3 (antibody, V domains shown)
VH: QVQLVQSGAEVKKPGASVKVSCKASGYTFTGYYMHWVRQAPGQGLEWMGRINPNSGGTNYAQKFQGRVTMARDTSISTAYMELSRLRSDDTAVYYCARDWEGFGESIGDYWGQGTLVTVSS
VL: EIVLTQSPGTLSLSPGERATFSCRASQSVSGSYLAWYQQKPGQAPRLLIHGASSRATGIPDRFSGSGSGTDFTLTISRLEPEDFAVYYCLQYGSSPLTFGGGTKVEIKR
notes: as for B1
B3: 38D9-12 (antibody, V domains shown)
VH: QVQLQESGPGLVKPSGTLSLTCAVSGDSISSTNWWSWVRQPPGKGLEWIGEINHNGSTYYNPSLKSRVTISVDKSKNQFSLKLRSVTAADTAVYYCAREDYYYMDVWGKGTTVTVSS
VL: DIQMTQSPSSLSASVGDRVTITCRTSQGIWNDLGWYQQKPGKAPKRLIYAASSLQSGVPSRFSGSESGTEFTLTISSLQPEDFATYYCLQYNNYPLTFGGGTKVEIKR
notes: as for B1
B4: 23D1-8 (antibody, V domains shown)
VH: QVQLVQSGAEVKKPGASVKVSCKASGYTFTGYYIHWVRQAPGQGLEWMGRINPNSGGTDFAQKFQARVTMTRDTAINIVYMELSRLRSDDTAVYYCARVVVASYYFDNWGQGTLVTVSS
VL: not shown
notes: as for B1
B5: 24B9-10 (antibody, V domains shown)
VH: QVQLQESGPGLVKPSGTLSLTCAVSGGSISSSNWWTWVRQPPGKGLEWIGEIYHSGSTNYNPSLKSRVTISVDKSKNQFSLKLSSVTAADTAVYYCARTGPIVTTEYWGQGTLVTVSS
VL: B2 VL with F21L, G31S, S32G, H50Y, S54I, V86L, L90Q
notes: as for B1
B6: 14D3-7-3 (antibody, V domains shown)
VH: EVQLVESGGGLVKPGGSLRLSCAASGFTFSNAWMSWVRQAPGKGLEWVGRIKRKTDGGTTDYATPVKGRFTISRDASKNTLYLQMNSLKTEDTAVYYCTSAARRGYFDIWGRGTLVTVSS
VL: EIVLTQSPGTLSLSPGERATLSCRASQSVSSRYLAWYQQKPGQAPRLLIYGASNRATGMPDRFSGSGSGTDFTLTISRLEPEDFAMYYCQQYGSSPITFGQGTRLEIKR
notes: as for B1
B7: 16E4-10-5 (antibody, V domains shown)
VH: QVQLQESGPGLVKPSGTLSLTCDVSGGSISSSNWWSWVRQPPGKGLEWIGEIYHSGSTNYNPSLKSRVTISVDKSKNQVSLKLNSVTAADTAVYYCARGDILLWFGGQGTLVTVSS
VL: B6 VL with M86V
notes: as for B1
B8: 20G6-7-1 (antibody, V domains shown)
VH: QVQLQESGPGLVKPSGTLSLTCAVSGGSISSSNWWSWVRQPPGKGLEWIGEIYHSGNTNYNPSLKSRVTISVDKSKNQFSLKLSSVTAADTAVYYCARGGTTFDYWGQGTLVTVSS
VL: B6 VL with T5M, S7Y, P15S, T57S, D71E, R78S, L105V
notes: as for B1
B9: 23C4-1-5 (antibody, V domains shown)
VH: B7 VH with D23A, N59T, N77S, V79I, N84T, I101V, Q108R
VL: B6 VL with T20S, R32N, A44T, N54I, M59I, T75I, M86V, G93S
notes: as for B1
B10: 1F10-12-3 (antibody, V domains shown)
VH: QVQLQESGPGLVKPSGTLSLTCAVSGGSISNSNWWNWVRQPPGRGLEWIGEIYHSGSTNYNPSLKSRVTISVDKSKNQFSLKLTSVTAADTAVYYCARYSTPFFDYWGQGNLVTVSS
VL: DIQMTQSPSSLSASVGDRVTITCRASQSISNYLNWYQQKQGKAPKLLIYGASSLQSGVPSRFSGSGSGTDFTLTINSLQPEDFATYCCQQSYNNPLTFGGGTKVEIKR
notes: as for B1

These binders were tested against T1, hOX40-EC-His (assay: ELISA, supernatant stoste, coated OX40 (CK60)).

450 nm light absorption [OD450]	Binder
2.43	B1
2.31	B2
2.24	B3
2.48	B4
2.19	B5

These binders were tested against T2, OX40 on OX40 over-expressed cells (assay: flow cytometry, supernatant on OX40 over-expressed cells).
Description: After collecting OX40 over-expressed cells by 200G centrifugation, wash them with PBS containing 3% FCS, and then resuspend them in 2.5 ml of PBS containing 3% FCS. […] Finally, the cells were resuspended in […] of PBS containing 3% FCS for detection by flow cytometry.

Y586 channel PE fluorescence value	Binder
479000	B1
208000	B2
243000	B3
166000	B4
274000	B6
377000	B7
352000	B8
63900	B9
313000	B5
170000	B10

What follows are binders tested against T1, hOX40-EC-His (assay: ELISA, supernatant diluted 100 times, coated OX40 (CK60)).

450 nm light absorption [OD450]	Binder
1.9	B1
1.89	B2
2.1	B3
2.02	B4
0.574	B5

What follows are binders tested against T1, hOX40-EC-His (assay: ELISA, supernatant diluted 50 times, coated OX40 (CK60)).

450 nm light absorption [OD450]	Binder
2.01	B6
2.53	B7
2.21	B8
2.63	B9
2.17	B10

What follows are binders tested against T1, hOX40-EC-His (assay: ELISA, supernatant 1:100, coated hOX40-EC-His).

IgG ELISA (1:100) [OD650]	Binder
0.1	B1
2	B2
2.4	B3
2.4	B4
2.2	B6
2.4	B9
0.2	B5
2.3	B10
